# Measurements: the nanobody polyreactivity screen of Harvey et al. (2022)
# Experiment: yeast display, Sf9 membrane polyspecificity reagent, FACS + sequencing; frameworks hold sequencing errors
# Summary of the method: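 Synthetic nanobody libraries on Saccharomyces cerevisiae BJ5465 were galactose-induced for 36–48 hours, stained 1 hour at 4 °C with 10% biotinylated, detergent-solubilized Sf9 membrane reagent and enriched on streptavidin microbeads. FACS then separated cells into low and high (top ~1%) gates by anti-HA (expression) and streptavidin (reagent binding) fluorescence. Genes were colony-PCR amplified, MiSeq 2 × 250 sequenced and CDR-length filtered. A clone's polyreactivity label is that of its gate of origin.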
row,Sequence,polyreactivity (PSR sort gate)
1,QVQLVESGGGLVQAGGSLRLSCAASGIISAHYAMGWYRQAPGKERELVAAISSSGGSTYYADSVKGRFTISRDNAKNTVYLQMNSLKPEDTAVYYCNAEFYWGYDYWGQGTQVTVSS,low polyreactivity
2,QVQLVESGGGLVQAGGSLRLSCAASGIISGDYAMGWYRQAPGKERELVARITSGDSTNYADSVKGRFTISRDNAKNTVYLQMNSLNPEDTAVYYCAADRVWAYWTYGYWGQGTQVTVSS,low polyreactivity
3,QVQLVESGGGLVQAGGSLRLSCAASGIISGEYAMGWYRQAPGKERELVAAIDYSGVSTYYADSVKGRFTISRDNAKNTVYLQMNSLKPEDTAVNYCAAYPSSEYDYWGQGTQVTVSS,low polyreactivity
4,QVQLVESGGGLVQAGGSLRLSCAASGIISPFYAMGWYRQATGKERELVADISTGGTTTYADSVKGRFTISRDNAKNTVYLQLNSLKPEDTAVYYCNAEVSLTYYWIVWASYDYWGQGTQVTVSS,low polyreactivity
5,QVQLVESGGGLVQAGGSLRLSCAASGIISRVYAMGWYRQAPGKERELVAAISGSGGTTYYADSVKGRFTISRDNAKNTVYLQMNSLKPEDTAVYYCAARYKALYDYWGQGTQVTVSS,high polyreactivity
6,QVQLVESGGGLVQAGGSLRLSCAASGIISSVYAMGWYRPAPGKERELVAAISGSGGSTYYADSVKGRFTISRDNAKNTVYLQMNSLKAEDTAVYYCAKGYQYQGNSYGYWGQGTQVTVSS,low polyreactivity
7,QVQLVESGGGLVQAGGSLRLSCAASGIIVDFYAMGWYRQAPGKERELVAGISWGGGTTYYADSVKGRFTISRDNAKNTVYLQMNSLKPEDTAVYYCAAVAFQTRYYYWGQGTQVTVSS,high polyreactivity
8,QVQLVESGGGLVQAGGSLRLSCAASGIIVDYYAMGWYRQAPGKERELVATITSGGSTNYADSVKGRFTISRDNAKNTVYLPMNSVKPEDTAVYYCAARTYWFPDIYPGLGMDYWGQGTQVTVSS,low polyreactivity
9,QVQLVESGGGLVQAGGSLRLSCAASGIIYIGNAMGWYRQAPGKERELVAAITYTGGSTYYADSVKGRFTISRDNAKNTVYLQMNSLKPEDTAVYYCDFDRTHLEDDYWGQGTQVTVSS,low polyreactivity
10,QVQLVESGGGLVQAGGSLRLSCAASGIIYTTNAMGWYRQAPGKERELVAAIRRSGSTYYADSVKGRFTISRDNAKNNVYLQMNSLKPEDTAVYYCNAKVHYGSRGDYWGQGTQLTVSS,low polyreactivity
11,QVQLVESGGGLVQAGGSLRLSCAASGIIYYLYAMGWYRHAPGKERELVATISRRGGSTYYADSVKGRFTISRDNAKNTVYLQMNSLKPEDTAVYYCATGHYSVGRSFSSGSYEYWGQGTQVTVSS,high polyreactivity
12,QVQLVESGGGLVQAGGSLRLSCAASGILFGPYAKGWYRQAPGKERELVAVISGSGGSTNYADSVKGRFTISRDNGKYTVYLQMNSLKPEVTAVYYCAADSLSKVCYYYWGEGTQVTVSS,low polyreactivity
13,QVQLVESGGGLVQAGGSLRLSCAASGILFYLNAMGWYRQAPGKERELVASISTGGGTNYADSVKGRFTISRDYAKNTVYLQMNSLKPEDTAFYYCAAKRRNTYTLYYYWGQGTQVTVSS,high polyreactivity
14,QVQLVESGGGLVQAGGSLRLSCAASGINFGKYAMGWYRQAPGKERELVAAITSGDSTYYADSVKGRFTISRDNAKNTVYLQMNSLKPEDTAVYYCNADAWRSQSWWHGLMEYWGQGTQVTVSS,low polyreactivity
15,QVQLVESGGGLVQAGGSLRLSCAASGINFGSNAMGWYRQAPGKERELVAAISKRGGNTYYADSVKGRFTISRDNAKNTVYLQMNSLKPEYTAVYYCATQQYLYAQKSYVEMDYWGQGTQVSVSS,high polyreactivity
16,QVQLVESGGGLVQAGGSLRLSCAASGINFNLYAMGWYRQAPGKERELVAAISRSGDSTNYADSVKGRFTISRDNAKNTVDLQMNSLKPEDTAVYYCAVGYRYLKWVDYWGQGTQVTVSS,high polyreactivity
17,QVQLVESGGGLVQAGGSLRLSCAASGINFVGYAMGWDRQAPGKERELVAAISTSSRTYYADSVKGRFTISRDNAKNTVYIQMNSLKPEDTAVYYCNARGTRWYYRHDYWGQGTQVTVSS,high polyreactivity
18,QVQLVESGGGLVQAGGSLRLSCAASGINFVKYTMGWYRQAPGKERELVAAITWTVGSTYYADSVKGRFTISRDNAKNTVYFQMNSLKPEDTAVYYCAARYYYWGQGTQVTGSS,high polyreactivity
19,QVQLVESGGGLVQAGGSLRLSCAASGINIRYYAMGWYRQAPGKERELVADITTGGTTYYADSVKGRFTISRDNAKNTVYLQMNSLKPEDTAVYYCAAYYFPTYSKTYIYPFDYWGQGTQVTVSS,low polyreactivity
20,QVQLVESGGGLVQAGGSLRLSCAASGINISYYAMGWYRQAPGKEREFVAAISWSVGSTYYADSVKGRFTISRDNAKYTVYLQMNSLKPEDTAVYYCAAEDGYWPTYYYWGQGSQVTVSS,high polyreactivity
21,QVQLVESGGGLVQAGGSLRLSCAASGINTAGYAMGWYRQAPGKERELVAAISTSGTSTYYADSVKGRFTISRDNAQNTVYLQMNSLQPEDTAVYYCAYTNYYGVGYYYWGQGTLVTVSS,low polyreactivity

row,Sequence,polyreactivity (PSR sort gate)
1,QVQLVESGGGLVQAGGSLRLSCAASGINYTFYAMGWYRQAPGKERELVAAISYSSGSTYADSVKGRFTISRDNAKNTVYLQMNSLKPEDTAVYYCAVDLFPGHSYTYDYWGQGTQVTVSS,low polyreactivity
2,QVQLVESGGGLVQAGGSLRLSCAASGIQVYNAMGWYRQAPGKERELVAAISARGGRTYYADSVKGRFTISRDNAKNTVYLQMNSLKPEDTAVYYCATLETTGVNYWGQGTLVTVSS,high polyreactivity
3,QVQLVESGGGLVQAGGSLRLSCAASGISFAIYAMGWYRQAPGKERELVAAISARGGTYYADSVKGRFTISRDNANNTVYSQMNSLKPEDTAVYYCNTDYVSRDDWDYRRYDYWGQGTQVTVSS,low polyreactivity
4,QVQLVESGGGLVQAGGSLRLSCAASGISFNGNAMGWYRQAPGKERELVAAISGSGGSTYYADSVKGRFTISRDNAKNSVYLQMNSLKQEDTAVYYCNALYGRRVYVGYDYWGQGSQVTVSS,high polyreactivity
5,QVQLVESGGGLVQAGGSLRLSCAASGITFADNSMGWYRQAPGKERELVAAISRGGSTYYADSVKGRFTISRDNAKNTVYLQMNSLKPEDTAVYYCAAAGWWRAWGSYLRFYGYDYWGQGTQVTVSS,low polyreactivity
6,QVQLVESGGGLVQAGGSLRLSCAASGITFADYAMGRYRQAPGKERELVAAISSGTSTYYADSVKGRFTISPDNAKNTVYLQMNSLKPEDTAVYYFYARYWGRVPPPAYDPRRYWGQGTQVTVSS,high polyreactivity
7,QVQLVESGGGLVQAGGSLRLSCAASGITFADYVMGWYRPAPGKERELVAAISTDGGSTYYADSVKGRFTISRDNAKNTVYLQMNSLKPEDTAVYYCASEWSYPGYEFDYWGQGTQVTVSS,high polyreactivity
8,QVQLVESGGGLVQAGGSLRLSCAASGITFAKYAMGWYRQAPGKERELVAAISTSGGSTYYADSVKGRFTISRDNAKNTVYLQMYSLKPEDTAVYYCNVDTYIWYYLRYYNYWGQGTQVTVSS,high polyreactivity
9,QVQLVESGGGLVQAGGSLRLSCAASGITFAPYAMGWYRQAPGKERELVAVISSGGSTKYADSVKGRFTISRDNAKNTVYLQMNSLKPEDTAVYYCAASAPRGYGYKYYYWGQGTQVTVSS,high polyreactivity
10,QVQLVESGGGLVQAGGSLRLSCAASGITFARYTMGWYRQAPGKERELVAAISWSGTSTYYADSVKGRFTISRDNAKNTVYLQMNSLKPEDTAVYYCAAGYSASRKVDYWGQGTQVTVSS,high polyreactivity
11,QVQLVESGGGLVQAGGSLRLSCAASGITFAYYAMGWYRQAPGKERELVAGISKSGGRTYYADSVKGRFTISRDNAKNTVYVQLNSLKPEYTAVYYCASQDARRIVYDRYYYWGQGTQVTVSS,high polyreactivity
12,QVQLVESGGGLVQAGGSLRLSCAASGITFAYYVMGWYRPAPGKERELVAVISSRGSRTFYADSVKGRFTISRDNAKNTVYLQMNSLKPEDTAVYYCAADSTYSYYWGQGTQVTVSS,high polyreactivity
13,QVQLVESGGGLVQAGGSLRLSCAASGITFDGYAMGWYRQAPGKEREFVAAISRSGTSTYYADSVKGRFTISRDNAKNTVYLQMNSLKPEDSAVYYCNKKWPRLYYYWGQGTQVTVSS,high polyreactivity
14,QVQLVESGGGLVQAGGSLRLSCAASGITFDHYAMGWYRPAPGKERELVATIRGSGTSTYYADSVKGRFTISRDNAKNTVYLQMHSLKPEDTAVYYCAARGRYRQFNYWGQGTQVTVSS,high polyreactivity
15,QVQLVESGGGLVQAGGSLRLSCAASGITFDKNTMGWYRQAPGKERELVAAISARGGSTYYADSVKGRFTISRDNAKYTVYLQMNSLKPEDTAVYYCAATRSYSYRTVYRRKYNYWGQGTQVTVSS,high polyreactivity
16,QVQLVESGGGLVQAGGSLRLSCAASGITFDKYALGWYRQAPGNERELVAAISGSDGSTYYADSVKGRFTISRDNAKNTVYLQNNSLKPEDTAVYYCAAESEYAGTYEYDYWGQGTQVTVSS,low polyreactivity
17,QVQLVESGGGLVQAGGSLRLSCAASGITFDKYAMGWYRQAPGKERELVARITSGGGTNYADSVKGRFTISRDNAKNTVYLQMNSLKPEDTAVYSCNKRTSPKRFDYWGQGTQVTVSS,high polyreactivity
18,QVQLVESGGGLVQAGGSLRLSCAASGITFDLYAMGWFRQAPGKERELVAAISISSTSTYYADSVKGRFTISRDNAKNTVYLQMNSLKPEDTAVYYCNAVPSSKTFWFDYWGQGTQVTVSS,low polyreactivity
19,QVQLVESGGGLVQAGGSLRLSCAASGITFDNYAMGWYRQAPGKEWELVAAISSDDNTTYADSVKGRFTISRDNAKNTVYLQMNSLKPEDSAVYYCAADSRIYGYWEYDYCGQGTQVTVSS,low polyreactivity
20,QVQLVESGGGLVQAGGSLRLSCAASGITFDNYAMGWYRQAPGKEWELVAAISSDDNTTYADSVKGRFTISRDNAKNTVYLQMNSLKPEDTAVYYCAADSRIYGYWEYDYWGQGTQVTVST,low polyreactivity
